Columns and labels:
Test in all cases: EMSA
[1] = molecular target: nsp8 (SARS-CoV-2, UniProt P0DTD1 3943-4140)
[2] = molecular target: nsp7;nsp8ΔN (SARS-CoV-2;SARS-CoV-2, UniProt P0DTD1;P0DTD1 3860-3942;4019-4140, |)
[3] = molecular target: nsp8ΔN (SARS-CoV-2, UniProt P0DTD1 4019-4140)
[4] = molecular target: nsp7;nsp8 (SARS-CoV-2;SARS-CoV-2, UniProt P0DTD1;P0DTD1 3860-3942;3943-4140, |)
[5] = molecular target: nsp7 (SARS-CoV-2, UniProt P0DTD1 3860-3942)

GCUUUGAUUUCG (ssRNA) [12-mer ssRNA (FAM, EMSA)]
binding result [1]: binds
binding result [2]: no binding
binding result [3]: no binding
binding result [4]: binds
binding result [5]: no binding
